Experimental data published in the DeepSol protein solubility set.

Assay: soluble on expression in E. coli; label from the status in PepcDB or PDB records

Soluble on expression in E. coli, soluble:
MGHHHHHHSHMPKGIALALGLNAVDPKHYGGWAGKLNACEADAEDMAAIAAERGFAVTTLMTKAATRAKVIDAIGKAAKALGKGDIFMLSYSGHGGQVPDTSNDEPDGVDETWCLFDGELIDDELYALLGKFAAGVRVLVFSDSCHSGTVVKMAYYNGTTAARSAGPDEGEIRYRAMPQSVAMRTYRANREFYDTIQQKTKKVDLADVKASILLISGCQDNQLSQDGAFNGAFTGQLLRVWKNGLYKGSYRSFHKAIVRRMPPDQTPNFFTAGTPDPAFLKQRPFTV
MSLDENIVKTGSNEMELVDFRIFKQGHDKVYEGIYGVNVSKVREIIKIPSLTELPGVPDYIEGIFDLRGVVIPVVNLAKWMQITEPESTMLKPRVIITEFSNILIGFIVHEAKRIRRINWKDIEPATFSTGSGALDKGKITGVTRIENDEVLLILDLESVVEDLGIYAPKTDIDFGKIEKFTGTALILDDSMTARKRVKEMMQQMGFQVVEAKDGVEGINKLEELSQIYGESLNDTLKIIVSDVEMPQMDGFHFAARIKEDPRFKDIPIVFNSSLSNEFMNEKGVQEAGGEGYLVKFNASDFFNEIAKVIKKHQSQEGHHHHHH
AKDALLLWCQMKTAGYPNVNVHNFTTSWRDGLAFNAIVHKHRPDLLDFESLKKCNAHYNLQNAFNLAEKELGLTKLLDPEDVNVDQPDEKSIITYVATYYHYFSKMKALAVEGK
MVINCAFIGFGKSTTRYHLPYVLNRKDSWHVAHIFRRHAKPEEQAPIYSHIHFTSDLDEVLNDPDVKLVVVCTHADSHFEYAKRALEAGKNVLVEKPFTPTLAQAKELFALAKSKGLTVTPYQNRRFDSCFLTAKKAIESGKLGEIVEVESHFDYYRPVAETKPGLPQDGAFYGLGVHTMDQIISLFGRPDHVAYDIRSLRNKANPDDTFEAQLFYGDLKAIVKTSHLVKIDYPKFIVHGKKGSFIKYGIDQQETSLKANIMPGEPGFAADDSVGVLEYVNDEGVTVREEMKPEMGDYGRVYDALYQTITHGAPNYVKESEVLTNLEILERGFEQASPSTVTLAKLEHHHHHH
MSLHKKDIIRLLETIAVYMELKGDNPFKVSAFRKAAAALEQDDRSLSEMDDMMSLSGIGKGTYSVIKEYIDEGKSSTLESLQKEVPEGLVPLLKLPGLGGKKIAKLYKELGVHDAESLKEACEQQKVQGLAGFGKKSEEKILQALGEAGKQPERFPIGYALRIAREIEEHLSQFTHIIKFSRAGSLRRARETVKDLDYIIATDHPAEVREQLLELPNIKSVIASGDTKVSVILSFEYETSVDFRLVTEEQFPTTLHHFTGSKDHNIKMRQIAKERGERISEYGVETVETGEIKTFPSEREFYAHFGLPLIPPEIRESEGHHHHHH
MARVTTGITSSHIPALGAAIQTGTSDNDYWGPVFKGYQPIRDWIKQPGNMPDVVILVYNDHASAFDMNIIPTFAIGCAETFKPADEGWGPRPVPDVKGHPDLAWHIAQSLILDEFDMTIMNQMDVDHGCTVPLSMIFGEPEEWPCKVIPFPVNVVTYPPPSGKRCFALGDSIRAAVESFPEDLNVHVWGTGGMSHQLQGPRAGLINKEFDLNFIDKLISDPEELSKMPHIQYLRESGSEGVELVMWLIMRGALPEKVRDLYTFYHIPASNTALGAMILQPEETAGTPLEPRKVMSGHSLAQA
MSLKLARINLSRDDIHKRLGGGIPYGSIILVEGEESTGKSIIAQRLAYGFLQTAHSVTYTSTQLTTLEFVKQMMSLNYNINKKLLSGTLLYIPVYPLISDNTQKDDFIKKIMETRAFYEKDIVIFDSLSSLIVNDASDIKVNDLMAFFKRIASMNKVIIYTINPKELPESILTLLRSSATMVLKTEIYTFGGNIKNLVKIEKYNLAQGPFQKLMVFRVEPKLGIAVEISSVAEGHHHHHH
GMTYQALMFDIDGTLTNSQPAYTTVMREVLATYGKPFSPAQAQKTFPMAAEQAMTELGIAASEFDHFQAQYEDVMASHYDQIELYPGITSLFEQLPSELRLGIVTSQRRNELESGMRSYPFMMRMAVTISADDTPKRKPDPLPLLTALEKVNVAPQNALFIGDSVSDEQTAQAANVDFGLAVWGMDPNADHQKVAHRFQKPLDILELFK
SASWLPETLFEIVGQGPAPSKDYYQLLITRTQIIFRWWKISLRSEYRSAKPGETKESHEDFLDNSHLQVQVAVVFGTKILDYVFNLCEGKFDYLERLSDRLLLKIICYLDLEDIASLSQTSSKFEKLCKSDLLWEQIVQSTCDTITPDMRALAKNMGWRQMFLTNNIQLQRQTRKKKQRQENQAEKLA
MEFGVPRERSGGEIPERRVPLTPQGVRELVASGHRVYVERGAGEGAGFPDEAYEEAGARLVGREEAFGRPQVVLKVARPTLEEVGLMRKNAVLMAFLHLAVAESPLVEAMAQKGLTAIGYELVGEEGRRPVLKAMSEIAGRMAPQLAGRLLEAPQGPGILLSGLVGIPPADVVVLGAGVLGRAAARAFLGAGASVHLLDRALPPLEEAAREAPGAITALVTQDRLERYVAFADVLVGAVAVPGERTPLLLTRGLLARMRPGSVLLDFSIDQGGVSETSRPGVYQEMGVTHFCLPNVPALVPRTASHALTLTLLPYLLRIQEDPLALPGLRQGAYLLFGEKGGHLE
MVDFKMTKEGLVLLIKDYQNLEEVLNAISARITQMGGFFAKGDRISLMIENHNKHSQDIPRIVSHLRNLGLEVSQILVGSTVEGKENDLKVQSRTTVESTGKVIKRNIRSGQTVVHSGDVIVFGNVNKGAEILAGGSVVVFGKAQGNIRAGLNEGGQAVVAALDLQTSLIQIAGFITHSKGEENVPSIAHVKGNRIVIEPFDKVSFERSE

Soluble on expression in E. coli, not soluble:
MSLKKSWLGYAQGYLLYRDLNNHSMTAIRISPETLEQDGTVLLPDCHTEGQNILFTDGEYINQIAASRDDGFVVRIFATSTEPVLQQELQLKLARKCLHACGISLFDLEKDLHIISTGFDEESAILGAGREFALMKTANGKIYYTGKYQSLGIKQGGPSAGKWVELPITKSPKIVHFSVGHDGSHALLVAEDGSVFFTGSASKGEDGESTKSRRQSKPYKPKKIIKMEGKIVVYTACNNGSSSVISKDGELYMFGKDAIYSDSSSLVSDLKGHFVTQVAMGKAHTCVLMKNGEVWTFGVNNKGQCGRDTGAMNQGGKGFGVENMATAMDEDLEEELDEKDEKSMMCPPGMHKWKLEQCMVCTVCGDCTGYGASCVSSGRPDRVPGGICGCGSGESGCAVCGCCKACARELDGQEARQRGILDAVKEMIPLDLLLAVPVPGVNIEEHLQLRQEEKRQRVIRRHRLEDGRGPLVFAGPIFMNHREQALARLRSHPAQLKHKRDKHKDGSGDRGEKDASKITTYPPGSVRFDCELRAVQVSCGFHHSVVLMENGDVYTFGYGQHGQLGHGDVNSRGCPTLVQALPGPSTQVTAGSNHTAVLLMDGQVFTFGSFSKGQLGRPILDIPYWNAKPAPMPNIGSKYGRKATWIGASGDQTFLRIDEALINSHEGHHHHHH
MSTDAFYSTAFPTIPGTPNLLGYTAYSPQSIFNDSRPASSVNNTPSTSFNSSIHSRNRSIAMLHSISHILSNDDSLGSTTESSTPSTPEIHPSNAPAKKTIPLVLISDTDEECDKKSRKRRIRSKSSKKSRGIRKSRKHEASDYRKKIMLGTFEGRKIVLKLMK
MGSDKIHHHHHHMVLLDYHMHSLNSTDAHDEISALCAKAIARGLQEIAVTDHFEPSAGHEEYSEYDGRKYFTEIAEARRRFAGKLSIKSGVELGQPHLFPKYSLQLLEEYPYDYVLGSAHRMPNNVDFGEVRYTPENLAAYCASYLTELKALAQWGHYDCLGHLDLVKRYAAKYRLRANLMDYQEQLAEILRIVIDKGKGIEVNTSGLRQSSQECLPDLDIIRLYKELGGEIITVGSDAHWAEDVGKGIQEGLERLKKAGFKYVSVYTNRQPAMIKIGDKSALFTRGGLSA
MAHHHHHHMGISVSHLLERLRTLFEPLEVVCALQLKCLLETRQLDYCNVSLNELQRAEAGLRSLLVDHPLDIEVGAQWEHLEDELQRLHVRFSVPVPTFRLLVRRSARALRSAVRALGWDGKIQRRLWQEEGEEPRDDGVQEPLRAFDAGGLSTCTVDEICNEGGVQDRSAAVFSAVAKLYHHRLALGAQSLVAAERLGPALGANVRAASRVPSLTLPNSAADPTHPRFKADLYAVSPDALSCTAARREAYAAS
MGSDKIHHHHHHMPTRSTPTERQKRLGAELRKMRLAAGAPTEYAAGLLGIDRTRLSNMESGIRPFSPDRVRTLACNYSCTDDGYIEALVAMTSTKERGWWERHRGILPSGLLDIAELEWHATRVRTAQVMHAPGLLQTEDYARGVFTAVLPPLTRLEVELRVAHRMERQQVLERPSPLPYIAYVHEAVLRMPYGGTEATQQQLKHLCSQSERENIEVRVIPTSTGGFPGAGHALLYADGAVPQLDTVQLDSAHGPEFTHADAQLTKYRSHLNWMDGAAMTSAASRDLIRKIARDL
MRFVFDIDGTLCFDGRLIDQTIIDTLLQLQHDGHELIFASARPIRDLLPVLPSVFHQHTLIGANGAMISQQSKISVIKPIHTDTYHHILKIIQKYELDYIIDDDWNYAAQLDAENAIFERLDPHKLASCIDVANIDTPIKIILLNIDPAQITTILDELNKYHQELEMIHHSNEYNIDITAQNINKYTALQYIFDADVKYIAFGNDHNDIFMLQHASSGYIIGPSEAYTHAILKLDKIKHINNNTQAICKVLKSYK
MGSDKIHHHHHHMSLSAEQIVEYRAFAEQLADAAAAAIAPYFRASLDVEDKGGRLYDPVTVADKAAEDAMRELIQARYPEHGILGEEAGIAVGSSPLTWVLDPIDGTRAFITGLPLWGTLIALNDGARPVLGVMNQPFTGERFVGTPAGAWRSGTPLKTRACADLSAATLMCTTPDMFDTAERKAAFEAVAGKARLMRYGGDCYAYCMLASGFVDVIVEASLQPYDVQALMPIIEGAGGVITAWDGSSAQDGGCVVACGDPVLHAQVLEMLRHAM
MGSDKIHHHHHHKTSSTQLPTIDAISSVADLTNAVNGVYEQQATEVGSYGAEFTLLADLRSGDFQSISTVNHAGPMYRYQTGKNDEMVYSFYKLFYNSLARLNNVLAAAENLEGADVDILKGELYAMRALYHFDLARVFAKLPSTTDMNDLGIVLSTEVYPTDYIGTRATLQQTYDQILKDIETALPLLSKDKQTGHINYWGALAIRARAYLYLEKNKEALADCKEIIASSPYKLYTRDEYIGAWDKEGTNEAIFEILVTPNYNAQRNSIGYFTHASGYGECAATESFLEELAKHPGDIRTELFAKETDNGYDGTYPQKYKGRDGQIYVNNPKVVRLSEVYLIAAEAALKAGDTSAAAGYMNTLRKNRIENYTDVASITLDDILLERRLELFTEGHTAWDAWRNGKSVNNKFVGEVKPGDYRTIMAIPIGEITVSRGQLIQNPGY
MGSDKIHHHHHHMVDTNHKIAFCIDSDGCAMDTMTYKHQLFFGPIAADIFGISEQERTSFLKEWDRVNLYSRTRGVNRFVGLVMGLEFAGVEHIDKLKEWVETTDSLSNNSLELALANDFSRDLEKALEWSNEVNRQIKNYEGDSLAFSGVLESLERLSQFGNVYVVSSANKEAVWQEWEEQGLLKYVDDIYCQDRGKKEDVIATLIASGYCRETILMVGDSLGDLAAAEQNGIAFYPVLVGKEVKSWEILREDIGEAFAKGQFEQQRQKESINTFWANLDN
MIFYFSGTGNSKWIANQLSKEQQEDLFFIPDAWKNDTWEFSLREDEKIGFVFPVYSWAPPVIVQEFIRKLVLKGYQQQYLFFVCSCGDDTGLTRQVMEKALAARGWRCNAGFSVIMPNNYVLFLGFDVDSKELEKKKLAEAVPALEKVSRLITGRETVFACKEGSLPFIKTRIINPLFVRYQMSPKPFHATSECIGCKRCEKSCPVGNITMKERRPVWGKNCTACLACYHVCPQHAVQYGKKTKGKGHYFNPDSAY
